According to the NTF2 design screens of Basanta et al. (2020):

Test: protease stability score; higher = more stable; yeast display proteolysis, trypsin and chymotrypsin;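 further: relative to predicted unfolded state with 0 unfolded-like and 1 meaning tenfold more protease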

SELEEFARKLMHIYSFAFLTGDWRLHEHMLDPHVRQEQGDKELHGMEDLERLMKRIDHVKHVEMLIEHLEVQGDKVRAHGKWRLIGTVNGQDVDVTIRAHFNIEKFDGVWVVREVRLL
protease stability score: 2.58

SELEEHATKMLQMVLEWWFTGDEEIFKHLADPHVRVESLINGVEIRRVGMEKLHEWLKHVLIHLRFEDMKVKHLEIINGVARQDTRTHMDVNGKHVDLETHVVVVNVNGRLKSIKIEIR
protease stability score: 0.971

SELEEIAEEVARRFSHFIETGDEEKLWKYFDPHVKIDIDIDGRTKELHGMERFVFFIRYLGLDRVELRDHRIEIQGEKAILDGTTHINGRTRKTNFHIFVFNGRIKFMQVHII
protease stability score: 1.48

SELEEILKIARRFFEIVMRTGDPRDIERLLDPNAKLIIDGQEIHGREKMSNTFEEMVRRYDVVKSIEDKDWKIVNGRVDLDITLNGRVDGKDISTRVIIHVEKINGRWFMREVNIE
protease stability score: 2.14

SELEEITEKAIRMDLQHEETGDWKKYSDMIDPHARFIVNGVEFVGRHFLLKWFLDVAKRVDHSRMHVDHEEHVDGRIHVDFRFELIFDGREYRIRSHIVADKIDGQWYFRQIRFQ
protease stability score: 1.29

SELEEITRRVWERLVRDLRTGDEKSLQEMLDPNVRSDFNGVELIGRELATKLIAELRIHDVKVEDVKFQGDKMTLDTKIDGEVNGKRHEFKHTLIFVKVDGQWMIETEEFH
protease stability score: 1.26

SELEEKAREMLTLLHKFWRTGNEEFFTKLFDPDMKLTVGDKEYIGMEDVTEYFVKWTREARLTDQETTDIEYYDGRLRIHVEMDVKQGDKRRKLESIIILLKVDGRWFATKVEIR
protease stability score: 0.928

SELEEKTEKWARLFWLLYKTGDWETLEKLLDPHVRSEINGKEEHGRENMIRMLVDLLRLLGIDHIELHHIEFVNGKVIIHLSLHAENHSSELIIEVNIINGKIESIRIEVR
protease stability score: 1.09

SELEELMHKFAKLFIHLWETGNEELLTKMADPNTRLIINGREVIGMERLLEVFHYIKTEIRLDTMRLEHIDWQGNKAHSHTRLHGEFNGRRHEDESEIHIRVIDGRVHTFEIRFK
protease stability score: 1.2

SELEELMKRLVKDWLHNWITGNEDRIWELADPDALVHFDGVISHGREEVIKLIRRFTEELRIHRIQIDHIKIQGDKIHIHLTEDGTIGDKRKEINVEIILFIINGKFKSSEIRIR
protease stability score: 1.49

SELEELSKEALERHNKDLRTGDWEELWRLLDPNVKLIVNGRHVHGREDATKFLLDWVRQVDHIRSIHIEDYKFQGNKLILHVRYQMDVDGKRDSREMTIYASKVDGRWIVESIEFR
protease stability score: 1.64

SELEELSKHHLELLTHSHRTGDEKSFVELLDPHARIHQGDFHFHGRKLIDEFFRQARIHHIHVDDSELQGNWVFVHGRVEGNFNGVRSKITTHIIELKVNGRWLLHNVHIA
protease stability score: 0.779

SELEELTEEAVKHILHIWETGDEEMSHDLVDPHVRVHVNGQKYHGRENAVEHISKLKGAKWHLRRFEVIDGKIHVDGQFHFNGRHHEVRVVIRKINGRWLIHEIQID
protease stability score: 1.77

SELEELVKRILKFILHSWDTGDEEFDKHMADPNVRVIYNGVDLHGMHTKDDLIKRLGWEQESRIRSIRAIGEKAHMDVELVWRFDGQQRDHDTRVHLDIVNGRSKNMEIRFK
protease stability score: 0.165

SELEELWKRLLEEFVRLLHTGNEERILDLMDPHARVHTTFENHEFHDHGREAFHIMWEEFGINHLEFHRVRLFNGQVDITGSVNVNGREMETRIHLYIINGRVHQTIFRFR
protease stability score: 0.996

SELEELWRKMVEFQERSNTTGDEKSFLEMLDPDMRIIIGDFEFHGRENAKDYLRRVDHIHHVEYRRVDLQGDKAHIEMHINGHWDGRTHRTDTHLHLRKFNGRWHVEDVQVD
protease stability score: 1.41

SELEEQERTHIHKLMNAIETGDEDLFRRLFDPNVRVDVDGVEFIGREHLLILLRHMRMHARHFKEEDFSVQGDKVHLYGHLDEEIEINGKVTRRHIHVTWVLVKVNGKWVIHSQYVL
protease stability score: 1.41

SELEEQVKYALELFIRTFETGDEDLSSQLLDPNTRLEINGREIHGRELVSKFWLKFATEMRLRRTHTRSIRNVDGKAINHTTIDVEIGDKRTTIDVELIAYKFDGRWVNEKIQFH
protease stability score: 0.828

SELEERAEKMTKEFERAFVTGNWEEQVKLLDPNVRIDINGVIFVGREQYERLVREIWMHVEDFRVTSLELQGEKARTHVESDVIIRVNGRDIRKKTEEEIVVSKINGVWSVERIHVR
protease stability score: 1.24

SELEESLEKFLRALRHLTETGDEDTWKRLLDPTTRLEINGKEIHGREDVSRHWKELRFRSEDPKDYKIVDGVLRLDTRVDGVFNGQHREVDVEVIVFKVDGRWEIKRIRYH
protease stability score: 1.56

SELEESVRWAAEVFVKYTLTGNEHLLSRYFDPNVRVHFDGVDLHGREELSKLFLHIRFRRIHLRSEKEFEGHAELDQEHDGHYNGVRHNRTLRLHMIKINGQWITEVFILH
protease stability score: 1.34

SELEETLKRSYELLSRILETGDEHRLKSLADPHTRMDFNGVEVHGMHLTVQWMKEFGADHEQYEVRIKRLDVQGDKLHSHGLLIIRIFINGRTIDLKIETHMHAEKIDGRWVIREIIWR
protease stability score: 1.36

SELEEWLFHFVKRFIRAELTGDEEEMLHLLDPNARMIIGDKHIHGRENIMELVRHFWHEIRIDHIEIKHVDFQGDKVIIHGQSDGQINGQRTTVDVRIQLIIINGRLKLLEFDNR
protease stability score: 1.71

SELEEWTERMAKQMLDDVETGDEDRLLKLADPHVRVEFIVDGKIEEVHGREELRKLMERLGIKHFEIKRVSIRVIDGRIHVHNDGHMIIDGKTIPVQLHIHAEKVNGRWRVTDLSIRVG
protease stability score: 1.51

SELEEYLTYLSKLFVHALITGNEDKYTEEFDPRTRFEMLINGRRIEYHGRESVREFLRHFLEEWRIHHIDTTEIEFIGDKARIHGEQEVHFNGRNITTKVRIDILFYNGKMRDIRIEIE
protease stability score: 2.15

SELEHDARNAEHWFEETFRTGDEEDRERLLDPHVLVEFNGREYIGWHVFQKFFNDLGVDHMEVRIHDSKVFNGRVHLDGELTIRQGDKLIRSHVHLILTKVDGRWRMREIRIH
protease stability score: 1.73

SELEHEMVEFFRLLVHAWRTGNEELAHRLIDPNVRLDVNGRHFHGWEEFFRFYKEIRLKDADLDSFRIIDGRVELDGTMHMEQGDKSRSVESHVLLEKIDGRWIVRSVRFH
protease stability score: 1.44

SELEHLMEEAWRLLLEAIRTGDEKLTNKLLDPNVRIEVGEFHYHGRELMLTWFKYELKHLRFKDSRIDHFDVVDGVAKMRTTDTNLVNGRDVTLDVIYVILKVNGRWVFHSMEIR
protease stability score: 0.861

SELEHLTEEVAERVLRVLLTGNEHWLDRLLDPHVRLHVNGQDFHGRENVKRWMHELGVDHREIEIEDYRSINGVFIVWGHIRIHQGEKEIKFKSEHIFVVFNGKMQSMEIRIL
protease stability score: 1.58

SELEHMLREVLHLLYESLETGDEELLETLVDPRMRLYINGQLIHGMDLAVEIELRRSREMRFRDWKIHSIHVQGNKAFMDVRHVGQINGVHISLEHEILIHKINGRWTIEERITK
protease stability score: 0.43

SELEHQVRKFVEIYVEAMRTGDEDVLRELADPHVRVVIGDKELHGWEEVVHKLRELRLEEIRVDRVRVIGDYVYVDGHSVWTYGDKRIEQRDIFTIRKVNGRWVLHDVILR
protease stability score: 1.99

SELEHVEEKLLRDLVNAIKTGDEEFFNRLLDPDDRLHEKQGDKTIDFIGREEWKRFLSQIKNLKVEFRDVDLWNGRIHMRVVIIINGREHDLELEYVIVNGRFKQFHVRIR
protease stability score: 2.2

SELEHWAERLTRILIHSLYTGDEESLLKLADPRVRNDVNGVHVVGMEWFLKVWNKYRDELRIHHIEVRDIKIINGVAHSTVREDGEINGKKLDVETHVELDTVNGRLRIVHIRIV
protease stability score: 1.58

SELEKDQEDFVRIVEEMMNTGDEHVFKNLADPHVRNDVNGKDVHGRELVTKIWHFLLRHLGINHIELKHVEIYGNKVIIHMEERVGDKRVELVIVAEKVNGKWYLSEIRFEHK
protease stability score: 1.28

SELEKELREFIKKVVEALATGDEDLLRELFDPHVRVKIGEWHFIGMEEMLRLIREIRMEIEEVRITELQIQGDKIHMETRLHGRLHIGDKERQTHYSTRVNVRKIDGQWITKSWEVH
protease stability score: 2.04

SELEKFHEESLKSVLESWITGDEHLNRDLVDPDAKLNVNGREHHGWELITILLSQMRVHDFKRRDIRFQGDKIFIDGEIDGEINGQRIRLRIDIIAVKVNGKWLIKEVRVH
protease stability score: 1.69
